System: small intestinal immune cells
Experiment: Droplet-based scRNA-seq of small intestinal immune cells (LP and PP), OVA vs PBS, clustering and differential expression
Assay type: in vivo, mouse
Settings: PP; cluster ID 8; OVA vs PBS
Description: To comprehensively characterize small intestinal immune cells, Applicants generated scRNA-Seq profiles for 58,067 immune cells collected from lamina propria (LP) and Peyer's patch (PP) regions at steady state and after induction of a type 2 inflammatory reaction to ovalbumin (OVA) (Brandt et al., 2003) (FIGS. 1A and 8A). To ensure sufficient representation of rare cells, Applicants combined a normalization strategy—removing by flow sorting either a portion of IgD+ naïve B cells, which are the most abundant cell type in PPs, or all CD19+ and CD3+ T cells (FIG. 8B, Methods)—with profiling of a sufficiently large number of cells number (P>0.99 to recover at least 15 cells from each cluster, Methods) by massively parallel scRNA-seq (Haber et al., 2017) (Methods). Applicants obtained 36,797 and 21,270 high quality cells passing initial filtering (Methods) from PP and LP regions, respectively.
Overall, Applicants annotated 27 cell subsets across the two compartments, spanning T cells, B cells, ILCs, dendritic cells (DCs), myeloid cells and stromal cells, in frequencies ranging from 0.07% to 14%. Briefly, Applicants first partitioned the cells from the PP regions by unsupervised clustering (Methods) into 46 clusters, retained the 97% of cells that were robustly assigned cell identities in each cluster (Methods), assigned the cells from the LP regions to the 46 clusters using a classifier (Methods), and visualized the data with scvis (Ding et al., 2018), a deep generative model-based method (FIGS. 1B and 8C, Methods). Next, Applicants identified genes that were differentially expressed between the cells in each cluster and the remaining cells (Table 1, Methods), as well as between pairs of clusters (Table 2), to elucidate identities of similar cell types/states. Applicants excluded from downstream analysis clusters mostly consisting of contaminants from epithelium, likely doublets, or cells with a small number of Unique Molecular Identifiers (UMIs) (FIGS. 1C and 8D), or lacking distinct markers (Methods). Altogether, Applicants retained 27 clusters spanning 85% of the cells and each associated with distinct marker genes (FIG. 8E, Methods).
To induce allergic reaction to OVA, 6 to 7 weeks old mice were sensitized twice, two weeks apart, with 50 μg of OVA plus 1 mg of aluminum potassium sulfate adjuvant via intraperitoneal injection. Two weeks later, mice were orally administered with 50 mg of OVA on every other day for a total of five times. 1 μg of α-CGRP peptide was administered simultaneously when indicated. Mice were deprived of food for 3-4 hours in cages with wood chip bedding for limiting antigen degradation in the stomach before each intragastric challenge.
Isolation of cells from Peyer's patches (PPs). Peyer's patches (PPs) were carefully dissected from the small intestine under a stereo microscope using a fine scissor, pierced once with a fine forcep. Tissues were digested in freshly made digestion buffer (RPMI-1640 containing 100 μg/ml Liberase™ and 50 μg/ml DNase I at 37° C. on a roto-mixer. After 15 min, tissues were very gently mixed using a 1 ml pipette. The supernatant was collected and added to ice-cold MACS buffer (pH 7.4; PBS plus 2% FCS and 2 mM EDTA). Pre-warmed (37° C.) fresh digestion buffer was added to the remaining tissues. After rotation at 37° C. for 15 min, the mixture was vigorously mixed using a 1 ml pipette for 1 min. Supernatants from the two steps were combined and passed through 70 μm filters and stained for FACS (below).
Isolation of cells from the lamina propria (LP). The small intestines were opened longitudinally and washed in ice-cold PBS. For scRNA-seq, roughly 0.5 cm of fragments from each of the distal, middle and proximal regions without visible PPs were collected. Epithelial cells were dissociated by tissue rotation in pre-warmed (37° C.) PBS containing 10 mM EDTA at 37° C. for 15 min, followed by additional incubation on ice for 15 min. Tissues were then shaken vigorously. […]

B1: OVA (protein, UniProt P01012 2-386, looked up)
Ovalbumin: GSIGAASMEFCFDVFKELKVHHANENIFYCPIAIMSALAMVYLGAKDSTRTQINKVVRFDKLPGFGDSIEAQCGTSVNVHSSLRDILNQITKPNDVYSFSLASRLYAEERYPILPEYLQCVKELYRGGLEPINFQTAADQARELINSWVESQTNGIIRNVLQPSSVDSQTAMVLVNAIVFKGLWEKAFKDEDTQAMPFRVTEQESKPVQMMYQIGLFRVASMASEKMKILELPFASGTMSMLVLLPDEVSGLEQLESIINFEKLTEWTSSNVMEERKIKVYLPRMKMEEKYNLTSVLMAMGITDVFSSSANLSGISSAESLKISQAVHAAHAEINEAGREVVGSAEAGVDAASVSEEFRADHPFLFCIKHIATNAVLFFGRCVSP
  Fosl2 LN (average fold change): −0.358
  Ftl1 LN (average fold change): −0.171
  Gadd45b LN (average fold change): −0.563
  Gimap1 LN (average fold change): 0.283
  Gimap6 LN (average fold change): 0.272
  Gimap9 LN (average fold change): 0.367
  Gnai2 LN (average fold change): −0.261
  Gramd1a LN (average fold change): 0.460
  Gramd3 LN (average fold change): −0.502
  Gzma LN (average fold change): 0.340
  H2-K1 LN (average fold change): 0.192
  H3f3b LN (average fold change): −0.185
  Hcst LN (average fold change): 0.174
  Hist1h1c LN (average fold change): 0.586
  Hist1h1e LN (average fold change): 1.277
  Icam1 LN (average fold change): −0.819
  Id2 LN (average fold change): 0.467
  Ier2 LN (average fold change): −0.235
  Ier5l LN (average fold change): −1.422
  Ifi203 LN (average fold change): 0.402
  Ifrd1 LN (average fold change): −0.708
  Igha LN (average fold change): 0.514
  Igkc LN (average fold change): 0.390
  Ikzf2 LN (average fold change): −0.467
  Il2rg LN (average fold change): −0.226
  Il16 LN (average fold change): 0.455
  Jun LN (average fold change): 0.210
  Jund LN (average fold change): −0.703
  Kdm2b LN (average fold change): −0.379
  Kdm6b LN (average fold change): −0.833
  Klf4 LN (average fold change): −0.524
  Klf6 LN (average fold change): 0.166
  Klrb1c LN (average fold change): 0.233
  Klrb1f LN (average fold change): 0.487
  Klrc1 LN (average fold change): 0.392
  Klrc2 LN (average fold change): 0.396
  Klrd1 LN (average fold change): 0.261
  Klre1 LN (average fold change): 0.295
  Klrk1 LN (average fold change): 0.213
  Lax1 LN (average fold change): 0.486
  Litaf LN (average fold change): −0.518
  Lmna LN (average fold change): −1.022
  Maff LN (average fold change): −0.445
  Mcpt1 LN (average fold change): 1.756
  Mir142hg LN (average fold change): −0.715
  Ms4a4b LN (average fold change): 0.271
  Ms4a6b LN (average fold change): 0.490
  Myl6 LN (average fold change): 0.199
  Nabp1 LN (average fold change): −0.167
  Ncr1 LN (average fold change): 0.265
  Ndel1 LN (average fold change): −0.337
  Neat1 LN (average fold change): 0.275
  Neurl3 LN (average fold change): −0.244
  Nfil3 LN (average fold change): 0.490
  Nfkb1 LN (average fold change): −0.244
  Nfkbia LN (average fold change): −0.579
  Nfkbid LN (average fold change): −1.010
  Nfkbie LN (average fold change): −0.483
  Nfkbiz LN (average fold change): −0.640
  Ninj1 LN (average fold change): −0.512
  Nkg7 LN (average fold change): 0.194
  Nr4a1 LN (average fold change): −0.415
  Nr4a2 LN (average fold change): −0.530
  Nr4a3 LN (average fold change): −0.808
  Odc1 LN (average fold change): −0.540
  P2ry10 LN (average fold change): −0.196
  Phlda1 LN (average fold change): −0.867
  Pim1 LN (average fold change): −0.358
  Pnrc1 LN (average fold change): −0.302
  Ppp1r15a LN (average fold change): −0.355
  Ppp1r16b LN (average fold change): −0.367
  Ppp3cc LN (average fold change): 0.528
  Prr7 LN (average fold change): −0.910
  Ptp4a2 LN (average fold change): −0.243

Reference: patent US20220143148A1, “COMPOSITIONS AND METHODS FOR MODULATING CGRP SIGNALING TO REGULATE INTESTINAL INNATE LYMPHOID CELLS” (The Broad Institute, Inc., priority 2019, published 2022)
